Reference: publication PMC4749184, “Viral Replication Protein Inhibits Cellular Cofilin Actin Depolymerization Factor to Regulate the Actin Network and Promote Viral Replicase Assembly” (PLoS Pathogens, 2016)

T1: FLAG-tagged p33 replication protein (Tomato bushy stunt virus, UniProt P15962 1-296)
T1 construct: p33 replication protein of Tomato bushy stunt virus (tombusvirus); also called FLAG-p33; source: yeast (BY4741, cof1 ts and act1 ts strains), CUP1 promoter, in detergent-solubilized membrane fraction
T1 sequence: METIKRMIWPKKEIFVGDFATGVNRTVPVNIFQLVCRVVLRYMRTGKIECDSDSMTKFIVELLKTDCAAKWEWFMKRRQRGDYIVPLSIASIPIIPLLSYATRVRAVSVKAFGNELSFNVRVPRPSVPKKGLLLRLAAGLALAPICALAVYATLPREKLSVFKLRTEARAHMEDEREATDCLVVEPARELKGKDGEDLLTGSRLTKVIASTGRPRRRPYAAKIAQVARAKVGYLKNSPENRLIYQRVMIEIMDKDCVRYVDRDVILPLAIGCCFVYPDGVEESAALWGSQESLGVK


molecular target: T1, FLAG-tagged p33 replication protein; experiment: co-IP; FLAG-affinity column purification of FLAG-p33 (co-expressed with FLAG-p92) from detergent-solubilized membrane fraction of yeast after cross-linking with 1% formaldehyde for 1 h on ice; co-purified His6-tagged host proteins detected by Western blot with anti-His antibody; yeast expressing His6-p33 as control; WT (BY4741), cof1-8 ts, cof1-22 ts, act1-121 ts, act1-132 ts, act1-105 ts and act1-112 ts yeasts at …; conditions: partners not purified

Binder	co-purified with p33 from act1-132 yeast, percent of co-purification from WT yeast [%]
Tef1 eEF1A (Tef1p) (natural protein, yeast (S. cerevisiae), UniProt P02994 1-458, looked up, Tef1p, eukaryotic elongation factor 1A, cellular host factor in yeast; source: yeast (act1-132 ts and WT), co-purified with p33) MGKEKSHINVVVIGHVDSGKSTTTGHLIYKCGGIDKRTIEKFEKEAAELGKGSFKYAWVLDKLKAERERGITIDIALWKFETPKYQVTVIDAPGHRDFIKNMITGTSQADCAILIIAGGVGEFEAGISKDGQTREHALLAFTLGVRQLIVAVNKMDSVKWDESRFQEIVKETSNFIKKVGYNPKTVPFVPISGWNGDNMIEATTNAPWYKGWEKETKAGVVKGKTLLEAIDAIEQPSRPTDKPLRLPLQDVYKIGGIGTVPVGRVETGVIKPGMVVTFAPAGVTTEVKSVEMHHEQLEQGVPGDNVGFNVKNVSVKEIRRGNVCGDAKNDPPKGCASFNATVIVLNHPGQISAGYSPVLDCHTAHIACRFDELLEKNDRRSGKKLEDHPKFLKSGDAALVKFVPSKPMCVEAFSEYPPLGRFAVRDMRQTVAVGVIKSVDKTEKAAKVTKAAQKAAKK	96
Tdh2 GAPDH (Tdh2p) (enzyme, yeast (S. cerevisiae), UniProt P00358 1-332, looked up, Tdh2p, glyceraldehyde-3-phosphate dehydrogenase, cellular host factor in yeast; source: yeast (act1-132 ts and WT), co-purified with p33) MVRVAINGFGRIGRLVMRIALQRKNVEVVALNDPFISNDYSAYMFKYDSTHGRYAGEVSHDDKHIIVDGHKIATFQERDPANLPWASLNIDIAIDSTGVFKELDTAQKHIDAGAKKVVITAPSSTAPMFVMGVNEEKYTSDLKIVSNASCTTNCLAPLAKVINDAFGIEEGLMTTVHSMTATQKTVDGPSHKDWRGGRTASGNIIPSSTGAAKAVGKVLPELQGKLTGMAFRVPTVDVSVVDLTVKLNKETTYDEIKKVVKAAAEGKLKGVLGYTEDAVVSSDFLGDSNSSIFDAAAGIQLSPKFVKLVSWYDNEYGYSTRVVDLVEHVAKA	111
Vps23 ESCRT I (Vps23p ESCRT factor) (natural protein, yeast (S. cerevisiae), UniProt P25604 1-385, looked up, Vps23p, ESCRT-I factor, cellular host factor in yeast; source: yeast (act1-132 ts and WT), co-purified with p33) MSANGKISVPEAVVNWLFKVIQPIYNDGRTTFHDSLALLDNFHSLRPRTRVFTHSDGTPQLLLSIYGTISTGEDGSSPHSIPVIMWVPSMYPVKPPFISINLENFDMNTISSSLPIQEYIDSNGWIALPILHCWDPAAMNLIMVVQELMSLLHEPPQDQAPSLPPKPNTQLQQEQNTPPLPPKPKSPHLKPPLPPPPPPQPASNALDLMDMDNTDISPTNHHEMLQNLQTVVNELYREDVDYVADKILTRQTVMQESIARFHEIIAIDKNHLRAVEQAIEQTMHSLNAQIDVLTANRAKVQQFSSTSHVDDEDVNSIAVAKTDGLNQLYNLVAQDYALTDTIECLSRMLHRGTIPLDTFVKQGRELARQQFLVRWHIQRITSPLS	108
Rpn11 deubiquitinase (enzyme, yeast (S. cerevisiae), UniProt P43588 1-306, looked up, Rpn11 deubiquitinase, cellular host factor in yeast; source: yeast (act1-132 ts and WT), co-purified with p33) MERLQRLMMNSKVGSADTGRDDTKETVYISSIALLKMLKHGRAGVPMEVMGLMLGEFVDDYTVNVVDVFAMPQSGTGVSVEAVDDVFQAKMMDMLKQTGRDQMVVGWYHSHPGFGCWLSSVDVNTQKSFEQLNSRAVAVVVDPIQSVKGKVVIDAFRLIDTGALINNLEPRQTTSNTGLLNKANIQALIHGLNRHYYSLNIDYHKTAKETKMLMNLHKEQWQSGLKMYDYEEKEESNLAATKSMVKIAEQYSKRIEEEKELTEEELKTRYVGRQDPKKHLSETADETLENNIVSVLTAGVNSVAIK	161
Cdc34 E2 enzyme (ubiquitin-conjugating enzyme) (enzyme, yeast (S. cerevisiae), UniProt P14682 1-295, looked up, Cdc34 ubiquitin-conjugating enzyme, cellular host factor in yeast; source: yeast (act1-132 ts and WT), co-purified with p33) MSSRKSTASSLLLRQYRELTDPKKAIPSFHIELEDDSNIFTWNIGVMVLNEDSIYHGGFFKAQMRFPEDFPFSPPQFRFTPAIYHPNVYRDGRLCISILHQSGDPMTDEPDAETWSPVQTVESVLISIVSLLEDPNINSPANVDAAVDYRKNPEQYKQRVKMEVERSKQDIPKGFIMPTSESAYISQSKLDEPESNKDMADNFWYDSDLDDDENGSVILQDDDYDDGNNHIPFEDDDVYNYNDNDDDDERIEFEDDDDDDDDSIDNDSVMDRKQPHKAEDESEDVEDVERVSKKI	207
His6-tagged Osh6 protein (yeast Osh6p ORP) (natural protein, yeast (S. cerevisiae), UniProt Q02201 1-448, looked up, also called Osh6 ORP; 6xHis-Osh6p; source: yeast, GAL1 promoter (UpYC-NT-Gal1-OSH6), in detergent-solubilized membrane fraction) MGSKKLTVGSDSHRLSKSSFSSNKSSHSATKDQPIDTDDIDEDDESGHNIILNIISQLRPGCDLTRITLPTFILEKKSMLERVTNQLQFPEFLLQAHSEKDPLKRFLYVMKWYLAGWHIAPKAVKKPLNPVLGEYFTAYWDLPNKQQAYYISEQTSHHPPECAYFYMIPESSIRVDGVVIPKSRFLGNSSAAMMDGSTVLQFLDIKDGNGKPEKYVLTQPNVYVRGILFGKMRIELGDHMIIKSPNFQADIEFKTKGYVFGTYDAIEGTVKDYDGNAYYEISGKWNDVMYLKDLKQPRSSPKVFLDTHKESPLRPKVRPLSEQGEYESRKLWKKVTDALAVRNHPVATEEKFQIEDHQRQLAKKRIEDGVEFHPKLFRRSKPGEDLDYCIYKNIPVDEDPEKQIRSILQIAPILPGQQFTDKFFIPAFEKIKSQKKMIENEKQNPAKQ	258
Vps4 AAA ATPase (Vps4p) (enzyme, yeast (S. cerevisiae), UniProt P52917 1-437, looked up, Vps4p AAA ATPase, cellular host factor in yeast; source: yeast (act1-132 ts and WT), co-purified with p33) MSTGDFLTKGIELVQKAIDLDTATQYEEAYTAYYNGLDYLMLALKYEKNPKSKDLIRAKFTEYLNRAEQLKKHLESEEANAAKKSPSAGSGSNGGNKKISQEEGEDNGGEDNKKLRGALSSAILSEKPNVKWEDVAGLEGAKEALKEAVILPVKFPHLFKGNRKPTSGILLYGPPGTGKSYLAKAVATEANSTFFSVSSSDLVSKWMGESEKLVKQLFAMARENKPSIIFIDEVDALTGTRGEGESEASRRIKTELLVQMNGVGNDSQGVLVLGATNIPWQLDSAIRRRFERRIYIPLPDLAARTTMFEINVGDTPCVLTKEDYRTLGAMTEGYSGSDIAVVVKDALMQPIRKIQSATHFKDVSTEDDETRKLTPCSPGDDGAIEMSWTDIEADELKEPDLTIKDFLKAIKSTRPTVNEDDLLKQEQFTRDFGQEGN	53
6xHis-Vap27-1 (VAP protein, Scs2-like plant ortholog) (natural protein, UniProt Q8VZ95 1-256, looked up, Vap27-1, VAMP-associated protein, a plant ortholog of yeast Scs2p; also called Vap27-1 (Scs2-like); ER-localized Vap27-1; source: expressed in yeast, in detergent-solubilized membrane fraction) MSNIDLIGMSNRDLIGMSNSELLTVEPLDLQFPFELKKQISCSLYLTNKTDNNVAFKVKTTNPKKYCVRPNTGVVLPRSTCEVLVTMQAQKEAPSDMQCKDKFLLQGVIASPGVTAKEVTPEMFSKEAGHRVEETKLRVTYVAPPRPPSPVHEGSEEGSSPRASVSDNGHGSEFSFERFIVDNKAGHQENTSEARALITKLTEEKQSAIQLNNRLQRELDQLRRESKKSQSGGIPFMYVLLVGLIGLILGYIMKRT	218
Pbp2 RNA binding protein (natural protein, yeast (S. cerevisiae), UniProt P38151 1-413, looked up, source: yeast (act1-132 ts and WT), co-purified with p33) MSTETTKPSITTTPTTVLVSPNTLKRKKGEDTSEEQLEAEIKRVALKDADSHSDNDHDSPDNVPSDVHLRMLCLVKHASLIVGHKGATISRIKSETSARINISNNIRGVPERIVYVRGTCDDVAKAYGMIVRALLEEHGNEDNGEDIEISINLLIPHHLMGCIIGKRGSRLREIEDLSAAKLFASPNQLLLSNDRILTINGVPDAIHIATFYISQTLLNFQMESPQKNVKRSIYYQPTQFNSVLIDHSQPNTIFHQRNHQYHPSDKLLSYKPNKNLPISSTLLSMATPQYTTASVANATAFQPNFVIPNVTVLDGPVISPAPGNHLLMNFVQQEIFIDEKFVGNVIGKDGKHINSVKESTGCSIIIQDPVEGSSERRLTIRGTFMASQAAIMLISNKIEIDRSNAERKRRSPL	85
